Reference: patent US20240000786A1, “COMPOSITION FOR ENHANCING INTRA-CELLULAR NITRIC OXIDE GENERATION” (INSTITUTE OF LIFE SCIENCES, priority 2020, published 2024)

B1: recombinant Nitric oxide synthase interacting protein (NOSIP) (other)
chain: HMTRHGKNCTAGAVYTYHEKKKDTAASGYGTQNIRLSRDAVKDFDCCCLSLQPCHDPVVTPDGYLYEREAILEYILHQKKEIARQMKAYEKQRGTRREEQKELQRAASQDHVRGFLEKESAIVSRPLNPFTAKALSGTSPDDVQPGPSVGPPSKDKDKVLPSFWIPSLTPEAKATKLEKPSRTVTCPMSGKPLRMSDLTPVHFTPLDSSVDRVGLITRSERYVCAVTRDSLSNATPCAVLRPSGAVVTLECVEKLIRKDMVDPVTGDKLTDRDIIVLQRGGTGFAGSGVKLQAEKSRPVMQALE
notes: It was synthesized by GenScript, cloned in pET22b, expressed in E. coli BL21 (DE3) and purified on Ni-NTA and by gel filtration; A His tag is implied but never described; also called rNOSIP; recombinant NOSIP
B2: iNOS Peptide-2 (18 mer iNOS peptide) (peptide)
peptide: NQYYGSFKEAKIEEHLAR
notes: 18-residue iNOS-derived peptide, synthesized commercially by China peptides; also called PP2; PP-2

Key:
[1] = target: T1, recombinant human iNOS oxygenase domain (human, UniProt P35228 82-505); test: SPR, iNOS immobilised, rNOSIP pre-incubated 30 min on ice with small molecule CC4 (inhibitor), 20 C, 1:1 Langmuir fit
T1 construct: It was cloned in pET22b, expressed in E. coli BL21 (DE3) and purified on Ni-NTA and by gel filtration; A His tag is implied but never described; In SPR it was immobilised on a GLC chip by amine coupling; also called riNOS; r iNOS
T1 sequence (P35228 other isoform, or with tags, fused parts or gaps limits assumed): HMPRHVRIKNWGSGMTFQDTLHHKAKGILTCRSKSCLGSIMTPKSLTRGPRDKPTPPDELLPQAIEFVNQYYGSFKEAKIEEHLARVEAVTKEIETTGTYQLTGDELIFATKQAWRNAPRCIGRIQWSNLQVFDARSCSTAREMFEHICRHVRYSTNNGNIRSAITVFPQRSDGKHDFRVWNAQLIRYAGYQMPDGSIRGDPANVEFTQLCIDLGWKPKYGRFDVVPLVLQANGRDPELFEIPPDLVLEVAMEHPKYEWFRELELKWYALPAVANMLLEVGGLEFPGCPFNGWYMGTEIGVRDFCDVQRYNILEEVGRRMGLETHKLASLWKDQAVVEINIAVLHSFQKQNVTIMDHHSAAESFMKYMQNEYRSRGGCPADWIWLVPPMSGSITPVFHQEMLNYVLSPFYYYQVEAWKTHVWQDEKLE
Procedure: (§1) Four different iNOS peptides were synthesized commercially by China peptides and iNOS peptides were used for molecular interaction studies with immobilized recombinant iNOS purified protein. The iNOS peptides mediated inhibition of rNOSIP and riNOS protein association in Bio-Rad XPR 36 surface plasmon resonance biosensor instrument. […] 250 nM of iNOS peptides was used for inhibition assay with immobilized ligand(recombinant iNOS) in SPR analysis. Similar condition and concentration of small molecules were used for inhibition of recombinant protein association with immobilized ligand. […] The molecular interaction was carried out at 20° C. and kinetic parameters were determined, after fitting the association and dissociation curves to a 1:1 (Langmuir)-binding model. […] The response curves were also recorded on control surfaces. Results were calculated after subtraction of the control values using the ProteOn Manager software.
(§2) The five small molecules bind with NOSIP and inhibit the association of recombinant NOSIP and recombinant iNOS. […] The molecular interaction was carried out at 20° C. and kinetic parameters were determined, after fitting the association and dissociation curves to a 1:1 (Langmuir)-binding model. […] The response curves were also recorded on control surfaces. Results were calculated after subtraction of the control values using the ProteOn Manager software.

[2] = target: T1, recombinant human iNOS oxygenase domain; test: SPR, iNOS immobilised, rNOSIP with small molecule CC5; KD ratio against the row rNOSIP + iNOS peptide2
Procedure: as §1
as §2, with “software. […]” for “software.”

[3] = target: T1, recombinant human iNOS oxygenase domain; test: SPR, iNOS immobilised; KD ratio against the row rNOSIP + iNOS peptide2 (= 1)
Procedure: as §1
as §2, with “software. […]” for “software.”

[4] = target: T1, recombinant human iNOS oxygenase domain; test: SPR, iNOS immobilised, rNOSIP with small molecule CC6; KD ratio against the row rNOSIP + iNOS peptide2
Procedure: as §1
as §2, with “software. […]” for “software.”

[5] = target: T1, recombinant human iNOS oxygenase domain; test: SPR, iNOS immobilised, rNOSIP with small molecule CC11; KD ratio against the row rNOSIP + iNOS peptide2
Procedure: as §1
as §2, with “software. […]” for “software.”

[6] = target: T1, recombinant human iNOS oxygenase domain; test: SPR, iNOS immobilised, rNOSIP pre-incubated 30 min on ice with small molecule CC6 (inhibitor), 20 C, 1:1 Langmuir fit
Procedure: as §1
as §2, with “software. […]” for “software.”

[7] = target: T1, recombinant human iNOS oxygenase domain; test: SPR, iNOS immobilised, rNOSIP pre-incubated 30 min on ice with small molecule CC13 (inhibitor), 20 C, 1:1 Langmuir fit
Procedure: as §1
as §2, with “software. […]” for “software.”

[8] = target: T1, recombinant human iNOS oxygenase domain; test: SPR, iNOS immobilised, rNOSIP pre-incubated 30 min on ice with iNOS peptide 2 (competitor), 20 C, 1:1 Langmuir fit
Procedure: as §1, §2

[9] = target: T1, recombinant human iNOS oxygenase domain; test: SPR, iNOS immobilised, rNOSIP with small molecule CC4; KD ratio against the row rNOSIP + iNOS peptide2
Procedure: as §1
as §2, with “software. […]” for “software.”

[10] = target: T1, recombinant human iNOS oxygenase domain; test: SPR (Bio-Rad ProteOn XPR36), iNOS immobilised on GLC chip by amine coupling, NOSIP as analyte, 20 C, 1:1 Langmuir fit
Procedure: (§3) Four different iNOS peptides were synthesized commercially by China peptides and iNOS peptides were used for molecular interaction studies with immobilized recombinant iNOS purified protein. The iNOS peptides mediated inhibition of rNOSIP and riNOS protein association in Bio-Rad XPR 36 surface plasmon resonance biosensor instrument. […] 250 nM of iNOS peptides was used for inhibition assay with immobilized ligand(recombinant iNOS) in SPR analysis. Similar condition and concentration of small molecules were used for inhibition of recombinant protein association with immobilized ligand. […] The rNOSIP protein was incubated with iNOS derived peptide/small molecules for 30 minutes in ice for inhibition assay before the SPR application in our study. The molecular interaction was carried out at 20° C. and kinetic parameters were determined, after fitting the association and dissociation curves to a 1:1 (Langmuir)-binding model. An activated channel without immobilized ligand was used to evaluate nonspecific binding. The response curves were also recorded on control surfaces. Results were calculated after subtraction of the control values using the ProteOn Manager software.
Manager software was used to fit the data with the Langmuir model describing a 1:1 binding stoichiometry. Ka is the association rate constant, Kd is the dissociation rate constant, and KD is the equilibrium dissociation constant, defined by the Kd/Ka ratio for the analytes—ligand binding.

[11] = target: T1, recombinant human iNOS oxygenase domain; test: SPR, iNOS immobilised, rNOSIP with small molecule CC13; KD ratio against the row rNOSIP + iNOS peptide2
Procedure: as §1
as §2, with “software. […]” for “software.”

[12] = target: T1, recombinant human iNOS oxygenase domain; test: SPR, iNOS immobilised, rNOSIP pre-incubated 30 min on ice with small molecule CC5 (inhibitor), 20 C, 1:1 Langmuir fit
Procedure: as §1
as §2, with “software. […]” for “software.”

[13] = target: T1, recombinant human iNOS oxygenase domain; test: SPR, iNOS immobilised, rNOSIP with iNOS peptide 2; this row is the reference of the fold change
[14] = target: T1, recombinant human iNOS oxygenase domain; test: SPR, iNOS immobilised, rNOSIP pre-incubated 30 min on ice with small molecule CC11 (inhibitor), 20 C, 1:1 Langmuir fit
Procedure: as §1
as §2, with “software. […]” for “software.”

[15] = target: T1, recombinant human iNOS oxygenase domain; test: SPR, NOSIP 1000 nM to 62.5 nM over immobilised iNOS in presence of 250 nM iNOS PP2 (competitor), Kinetic-Langmuir analysis (FIG. 2(b))
Procedure: FIG. 2 depicts inhibition of iNOS-NOSIP protein interaction by iNOS derived peptides. […] These interactions was inhibited in presence of different iNOS peptides (250 nM) viz; PP1—red line, PP2—sky blue line at bottom of graph, PP3—blue line and PP4—green line.
as §3

[16] = target: B1; test: ITC, 10 µM iNOS peptide in the chamber, 150 µM rNOSIP in syringe, 25 C
Procedure: (§4) The predictions were tested for validation by […] (SPR). […] The other 3 peptides (Peptide-1, SEQ ID No: 25), (Peptide3, SEQ ID No: 27), and (peptide-4, SEQ ID No: 28) were less efficient in inhibiting interaction between iNOS and NOSIP as shown in FIG. 2(a). […] NOSIP and iNOS peptide (PP2) binding was measured by titrating 10 μM iNOS peptide in the chamber with 150 μM rNOSIP in syringe at 25° C. Top panel, raw heating power over time; Bottom panel, fit of integrated injection enthalpy over the mole ratio of the reactants.

[17] = target: B1; test: ITC; this row is the reference of the fold change in Table 1
Procedure: (§5) The 18 mer iNOS peptide (PP2) and small molecules were used for physical association of molecules in calorimetric analysis. The molecular association leads to thermodynamics changes such as Gibb's free energy change (ΔG), entropy change (ΔS), enthalpy change (ΔH) and number of binding sites (N) in interacting solution were investigated by isothermal calorimetry MICROCAL PEQ (Malvern) at 25° C. The sample cell were filled with peptides, small molecules and the reference cell was filled with 25 mM HEPES and 150 mM Sodium chloride, pH=7 and the syringe was filled with NOSIP solution (200 μM). The experiment consisted of multiple injections and each injection contained 1.5 μl of binding solution (recombinant NOSIP solution) with 120 second spacing time between subsequent injections. Sequential titrations were carried out and the sample solution was continuously stirred at 270 rpm by the rotating paddle attached to the syringe needle. Multiple injections of NOSIP made into the sample cell containing interacting solution of peptide and small molecules. The titration curves were analyzed using the analysis software provided with the calorimeter.
The 18 mer iNOS peptide (PP2) and five small molecules were used to analyze physical association in calorimetric analysis. […] The titration curves were analyzed using the analysis software provided with the calorimeter.

[18] = target: B1; test: ITC, 10 µM iNOS peptide in the chamber, 150 µM rNOSIP in syringe, 25 C; ITC, 25 C; 10 µM iNOS peptide in chamber, 150 µM rNOSIP in syringe
Procedure: as §4

[19] = target: B1; test: ITC (MicroCal PEAQ), peptide in cell, rNOSIP in syringe, 25 C
Procedure: as §5
The 18 mer iNOS peptide (PP2) and five small molecules were used to analyze physical association in calorimetric analysis. The molecular association leads to thermodynamics changes such as Gibb's free energy change (ΔG), entropy change (ΔS), enthalpy change (ΔH) and number of binding sites (N) in interacting solution were investigated by isothermal calorimetry MICROCAL PEQ (Malvern) at 25° C. The sample cell were filled with peptides, small molecules and the reference cell was filled with 25 mM HEPES and 150 mM Sodium chloride, pH=7 and the syringe was filled with NOSIP solution (200 μM). The experiment consisted of multiple injections and each injection contained 1.5 μl of binding solution with 120 second spacing time between subsequent injections. Sequential titrations were carried out and the sample solution was continuously stirred at 270 rpm by the rotating paddle attached to the syringe needle. Multiple injections of NOSIP made into the sample cell containing interacting solution of peptide and small molecules. The titration curves were analyzed using the analysis software provided with the calorimeter.

B1
KD (M) in presence of small molecule MCULE-4640800528 (CC4) [1]: 0.00087 M
Fold Change (KD) [2]: 119
Fold Change (KD) [3]: 0.00144
Fold Change (KD) [4]: 142
Fold Change (KD) [5]: 164
KD (M) in presence of small molecule MCULE-3765839647 (CC6) [6]: 0.000704 M
KD (M) in presence of small molecule MCULE-8395438746 (CC13) [7]: 0.000543 M
KD (M) in presence of iNOS peptide2 [8]: 4.94e-06 M
Fold Change (KD) [9]: 176
Kd [10]: 7.11 nM
koff [10]: 0.000681 s⁻¹
kon [10]: 95700 M⁻¹ s⁻¹
Fold Change (KD) [11]: 110
KD (M) in presence of small molecule MCULE-8469877005 (CC5) [12]: 0.000588 M
Fold Change (KD) [13]: 1
KD (M) in presence of small molecule MCULE-8094061955 (CC11) [14]: 0.000809 M
KD in presence of 250 nM iNOS PP2 [15]: 495 nM
Ka in presence of 250 nM iNOS PP2 [15]: 5360
Kd in presence of 250 nM iNOS PP2 [15]: 0.00265

B2
-TΔS [16]: 0.459 kcal/mol
N [16]: 0.993
ΔG [16]: -8.61 kcal/mol
ΔH [16]: -9.07 kcal/mol
Fold Change (KD) [17]: 1
Kd [18]: 493 nM
-TΔS [19]: -0.1 kcal/mol
Kd [19]: 548 nM
ΔG [19]: -8.54 kcal/mol
ΔH [19]: -8.44 kcal/mol
